Experimental data: patent publication US20190292245A1 (published 2019)
Like-named read-outs stand apart in the source and are kept apart here.

B1: 1C9 chimeric humanized antibody (antibody, V domains shown)
VH: EVQLQQSGTVLARPGASVKMSCKTSGYTFTNHWMHWVKQRPGQGLEWIGAIDPGNSDTSYNQKFKGQAKLTAVTSASTAFMELSSLTNEDSAVYYCTRRDFFGGEYAVDYWGQGTSVTVSS
VL: DVVMTQTPLSLPVSLGDQASISCRSSQSLVHSNGNTYLHWYLQKPGQSPKLLIYKVSNRFSGVPDRFSGSGSGTDFTLKISRVEAEDLGVYFCSQSTHVPWTFGGGTKLEIK
B2: mouse monoclonal antibody 1C9 (antibody, V domains shown)
VH: B1 VH
VL: B1 VL
B3: Armanezumab (antibody, V domains shown)
VH: QVQLVQSGAEVKKPGASVKVSCKASGYTFTNHWMHWVRQAPGQGLEWMGAIDPGNSDTSYNQKFKGRVTMTRDTSTSTVYMELSSLRSEDTAVYYCARRDFFGGEYAVDYWGQGTLVTVSS
VL: DIVMTQSPLSLPVTPGEPASISCRSSQSLVHSNGNTYLHWYLQKPGQSPQLLIYKVSNRFSGVPDRFSGSGSGTDFTLKISRVEAEDVGVYYCSQSTHVPWTFGQGTKVEIKR

Experiments:
[1] = target: T1, recombinant tau protein (full-length) (human, UniProt P10636 1-441); assay: SPR (Biacore)
T1 sequence (P10636 other isoform, or with tags, fused parts or gaps): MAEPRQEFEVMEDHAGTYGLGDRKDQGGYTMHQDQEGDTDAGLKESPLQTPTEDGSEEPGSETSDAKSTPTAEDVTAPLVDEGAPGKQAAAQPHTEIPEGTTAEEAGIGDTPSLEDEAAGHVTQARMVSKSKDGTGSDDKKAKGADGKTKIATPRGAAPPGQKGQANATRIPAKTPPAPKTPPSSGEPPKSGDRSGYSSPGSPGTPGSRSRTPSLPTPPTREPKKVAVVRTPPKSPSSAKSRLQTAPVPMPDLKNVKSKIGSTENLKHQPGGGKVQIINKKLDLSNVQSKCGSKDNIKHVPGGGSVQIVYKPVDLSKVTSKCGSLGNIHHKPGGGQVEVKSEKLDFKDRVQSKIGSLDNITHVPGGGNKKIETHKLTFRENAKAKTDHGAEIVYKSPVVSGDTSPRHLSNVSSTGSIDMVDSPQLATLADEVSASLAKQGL

[2] = target: T1, recombinant tau protein (full-length); assay: SPR (Biacore); remark: listed apart in the source

Binder | Kd [1] [nM] | Kd [2] [nM]
B1 | 3.91 | –
B2 | 3.39 | 9.51
B3 | – | 48
